Data: patent US20210238283A1 (Y BIOLOGICS, published 2021)

T1: human LAG-3 overexpressed on cells (human, UniProt P18627 23-525)
T1 sequence (looked up): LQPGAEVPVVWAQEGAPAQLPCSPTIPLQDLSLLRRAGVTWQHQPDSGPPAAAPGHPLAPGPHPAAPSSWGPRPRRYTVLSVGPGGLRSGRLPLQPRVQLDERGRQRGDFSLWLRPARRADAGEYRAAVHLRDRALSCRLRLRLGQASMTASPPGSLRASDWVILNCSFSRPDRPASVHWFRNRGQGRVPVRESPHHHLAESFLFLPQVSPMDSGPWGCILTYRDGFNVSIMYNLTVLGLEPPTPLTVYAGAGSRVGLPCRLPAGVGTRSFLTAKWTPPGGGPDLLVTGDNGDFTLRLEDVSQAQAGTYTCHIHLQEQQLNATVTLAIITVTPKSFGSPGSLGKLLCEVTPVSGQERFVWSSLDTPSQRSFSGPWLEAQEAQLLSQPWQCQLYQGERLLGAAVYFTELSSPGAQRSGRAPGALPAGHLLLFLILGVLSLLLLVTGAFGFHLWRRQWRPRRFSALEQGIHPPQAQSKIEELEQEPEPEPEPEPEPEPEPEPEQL

T2: recombinant human LAG-3 extracellular domain fused with mouse Fc (hLAG-3-mFc) (human, UniProt P18627 29-450)
T2 construct: range 29-450; Made in HEK293F cells; also called human LAG-3 antigen; wild-type (WT) LAG-3; not shown: mouse Fc (mFc) at the carboxy terminal
T2 sequence (looked up): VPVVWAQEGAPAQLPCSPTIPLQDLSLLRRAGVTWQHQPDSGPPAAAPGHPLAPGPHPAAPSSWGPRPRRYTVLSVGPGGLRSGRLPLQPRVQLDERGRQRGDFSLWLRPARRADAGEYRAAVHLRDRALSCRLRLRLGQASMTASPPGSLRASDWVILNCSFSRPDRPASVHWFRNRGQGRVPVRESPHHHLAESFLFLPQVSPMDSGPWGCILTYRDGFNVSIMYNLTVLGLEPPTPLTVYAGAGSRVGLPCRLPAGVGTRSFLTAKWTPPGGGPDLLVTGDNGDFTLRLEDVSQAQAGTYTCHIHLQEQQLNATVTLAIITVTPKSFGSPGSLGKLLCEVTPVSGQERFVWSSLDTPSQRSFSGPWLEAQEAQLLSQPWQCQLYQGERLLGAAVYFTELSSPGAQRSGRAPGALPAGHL

T3: recombinant mouse LAG-3 fused with mouse Fc (mLAG-Fc) (mouse, UniProt Q61790 24-442, limits assumed)
T3 construct: also called mouse LAG-3 antigen; not shown: mouse Fc (mFc) at the carboxy terminal
T3 sequence (looked up): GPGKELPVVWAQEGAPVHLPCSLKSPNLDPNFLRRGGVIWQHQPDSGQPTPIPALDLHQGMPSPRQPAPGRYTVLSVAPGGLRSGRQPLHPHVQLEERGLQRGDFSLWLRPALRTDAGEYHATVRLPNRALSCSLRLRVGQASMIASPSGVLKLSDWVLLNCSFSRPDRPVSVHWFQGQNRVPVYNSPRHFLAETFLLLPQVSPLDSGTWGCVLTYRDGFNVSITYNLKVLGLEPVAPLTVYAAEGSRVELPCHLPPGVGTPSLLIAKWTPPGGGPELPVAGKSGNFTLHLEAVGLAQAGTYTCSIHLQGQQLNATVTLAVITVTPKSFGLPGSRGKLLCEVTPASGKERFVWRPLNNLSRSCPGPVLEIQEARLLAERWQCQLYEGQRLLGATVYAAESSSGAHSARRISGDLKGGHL

T4: mouse LAG-3 overexpressed on HEK293E cells (mouse, UniProt Q61790 24-521)
T4 construct: whole, on cells; also called HEK293E-mLAG3; mLAG3 (Mouse)
T4 sequence (looked up): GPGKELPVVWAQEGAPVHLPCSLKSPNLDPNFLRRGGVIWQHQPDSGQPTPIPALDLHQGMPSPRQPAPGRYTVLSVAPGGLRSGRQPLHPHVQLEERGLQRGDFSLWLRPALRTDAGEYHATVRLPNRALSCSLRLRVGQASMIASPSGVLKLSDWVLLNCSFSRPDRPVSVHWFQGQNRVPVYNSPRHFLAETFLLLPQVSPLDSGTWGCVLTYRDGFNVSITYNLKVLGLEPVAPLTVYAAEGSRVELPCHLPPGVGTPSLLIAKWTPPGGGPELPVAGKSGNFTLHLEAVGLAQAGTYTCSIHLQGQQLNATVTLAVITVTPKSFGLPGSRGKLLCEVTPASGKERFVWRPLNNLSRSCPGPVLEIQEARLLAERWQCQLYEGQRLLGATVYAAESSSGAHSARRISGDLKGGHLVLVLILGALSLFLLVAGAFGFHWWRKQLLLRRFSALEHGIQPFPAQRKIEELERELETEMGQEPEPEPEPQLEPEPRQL

T5: monkey (Rhesus monkey) LAG-3 overexpressed on HEK293E cells (Rhesus monkey, UniProt A0A5F8A874 23-533)
T5 construct: whole, on cells; also called HEK293E-MrhLAG3; MrhLAG3 (Rhesus Monkey)
T5 sequence: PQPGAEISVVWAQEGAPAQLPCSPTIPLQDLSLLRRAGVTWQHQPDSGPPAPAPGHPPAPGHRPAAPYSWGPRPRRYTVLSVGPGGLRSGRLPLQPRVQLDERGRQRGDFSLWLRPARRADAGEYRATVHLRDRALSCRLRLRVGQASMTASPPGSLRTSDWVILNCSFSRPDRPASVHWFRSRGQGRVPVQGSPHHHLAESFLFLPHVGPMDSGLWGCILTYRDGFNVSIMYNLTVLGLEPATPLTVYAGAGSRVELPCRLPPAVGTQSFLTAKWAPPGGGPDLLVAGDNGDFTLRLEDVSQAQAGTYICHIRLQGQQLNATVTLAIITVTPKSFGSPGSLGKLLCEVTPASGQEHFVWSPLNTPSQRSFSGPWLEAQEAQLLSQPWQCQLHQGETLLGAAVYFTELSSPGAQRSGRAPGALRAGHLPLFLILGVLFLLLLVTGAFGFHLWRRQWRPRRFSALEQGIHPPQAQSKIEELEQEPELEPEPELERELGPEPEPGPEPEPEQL


What was measured:
[1] = target: T1, human LAG-3 overexpressed on cells; assay: cell-based or functional assay
[2] = target: T2, recombinant human LAG-3 extracellular …; assay: BLI (Octet QKe), 1:1 global fit
Protocol: (§1) After stabilization for 10 minutes in a buffer (#18-1042, Fortebio Inc.), immobilized antigen or antibody was washed out for 5 minutes with the buffer. The antibody or antigen desired for binding was prepared at different concentrations (0.94-60 nM) in a 96-well plate (#655209, Greiner Bio-One, USA) and subjected to the association reaction for 10 minutes followed by dissociation reaction for 10 minutes or 30 minutes.

[3] = target: T6, recombinant monkey LAG-3 fused with mouse Fc (MrhLAG-3-mFc) (monkey); assay: BLI (Octet QKe), 1:1 global fit
T6 construct: also called monkey LAG-3 antigen
Protocol: as §1

[4] = target: T3, recombinant mouse LAG-3 fused with …; assay: BLI (Octet QKe), 1:1 global fit
Protocol: as §1

[5] = target: T2, recombinant human LAG-3 extracellular …; assay: Octet biolayer interferometry, 1:1 global fit
Protocol: as §1

[6] = target: T6, recombinant monkey LAG-3 fused with …; assay: Octet biolayer interferometry, 1:1 global fit
Protocol: as §1

[7] = target: T1, human LAG-3 overexpressed on cells; assay: flow cytometry on HEK293E-hLAG3 cells, MFI, fitted curve
Protocol: (§2) After that, the cells were washed three times with PBS containing 2% FBS and then subjected to the reaction for 30 minutes at 4° C. with anti-human IgG antibody (#FI-3000, Vectorlabs) linked with FITC fluorescent. The cells were washed by the same washing process as above followed by suspension in 0.2 ml PBS containing 2% FBS. The cells were then analyzed by FACSCanto II flow cytometer.

[8] = target: T4, mouse LAG-3 overexpressed on HEK293E …; assay: flow cytometry on HEK293E-mLAG3 cells, MFI, fitted curve
Protocol: as §2

[9] = target: T5, monkey (Rhesus monkey) LAG-3 …; assay: flow cytometry on HEK293E-MrhLAG3 cells, MFI, fitted curve
Protocol: as §2

[10] = target: T3, recombinant mouse LAG-3 fused with …; assay: BLI (Octet QKe)
[11] = target: T4, mouse LAG-3 overexpressed on HEK293E …; assay: flow cytometry on HEK293E-mLAG3 cells, MFI
Protocol: as §2

Row | EC50 (µg/ml), LAG3/MHC class II Blockade bioassay [1] [µg/mL] | Kd [2] [nM] | Kd [3] [nM] | Kd [4] [nM] | koff [5] [s⁻¹] | kon [5] [M⁻¹ s⁻¹] | koff [6] [s⁻¹] | kon [6] [M⁻¹ s⁻¹] | EC50 [7] [µg/mL] | EC50 [8] [µg/mL] | EC50 [9] [µg/mL] | binding result [10] | Binder | binding result [11]
1 | 0.0822 | 0.136 | 0.629 | 2.62 | 1.61e-05 | 119000 | 3.23e-05 | 51400 | 0.0297 | 1.74 | 0.156 |  | LAG3-1E09_AM_2H01 (antibody, V domains shown, Tested as full IgG) VH: EVQLVESGGDLVQPGGSLRLSCAASGFTFSDHYMNWVRQAPGKGLEWVAYIDTSATYIYYADSVKGRFTISRDNAKNSLYLQMNSLRAEDTAVYYCARDNWGSLDYWGQGTLVTVSS VL: DIQMTQSPSSLSASVGDRVTITCQASQDISNYLNWYQQKPGKAPNLLIYDASTLETGVPSRFSGSGYGTDFTLTISGLQPDDFALYYCQQSYSTPYSFGPGTKVEIK | 
2 | 0.0938 | 0.0906 | 0.456 |  | 1.03e-05 | 114000 | 3.7e-05 | 81100 | 0.0926 |  | 0.301 | no binding | LAG3-1E09_FR_1E05 (antibody, V domains shown, Tested as full IgG) VH: EVQLVESGGGLVQPGGSLRLSCAASGFSFSDHYMNWVRQAPGKGLEWVAYIDTSATYIYYADSVKGRFTISRDNAKNSLYLQMNSLRAEDTAVYYCARDNWGSLDYWGQGTLVTVSS VL: DIQMTQSPSSLSASVGDRVTITCRASQSISSWLAWYQHKPGKAPKLLIYDASNLETGAPSRFSGSGSGTDFTFTIYSLQPEDVATYYCQQYDTVPPTFGPGTKVDIK | no binding (tested: Log10[Ab] about 0.8, µg/ml)
